Measurements published in the supplement of paper PMC7877785.
± gives the uncertainty stated by the source.

Assay: self-splicing fitness, log relative to wild type (ln ratio); higher = more splicing; Tetrahymena group I intron in knt gene, E. coli kanamycin selection, DiMSum; sequences stand for … in CUCUCU…GGAGGGAAAAGUUAUCAGGCAUGCACCUGGUAGCUAGUCUUUAAACCAAUAGAUUGCAUCGGUUUAAAAGGCAAGACCGUCAAAUUGCGGGAAAGGGGUCAACAGCCGUUCAGUACCAAGUCUCAGGGGAAACUUUGAGAUGGCCUUGCAAAGGGUAUGGUAAUAAGCUGACGGACAUGGUCCUAACCACGCAGCCAAGUCCUAAGUCAACAGAUCUUCUGUUGAUAUGGAUGCAGUUCACAGACUAAAUGUCGGUCGGGGAAGAUGUAUUCUUCUCAUAAGAUAUAGUCGGACCUCUCCUUAAUGGGAGCUAGCGGAUGAAGUGAUGCAACACUGGAGCCGCUGGGAACUAAUUUGUAUGCGAAAGUAUAUUGAUUAGUUUUGGAGUACUCGUGGUCG
Procedure, shortened: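 A randomised library covering all eight P1ex-region intron nucleotides was built with the intron in the knt kanamycin-resistance gene on pET-22b(+) and held in E. coli BL21(DE3). Cells were grown overnight at 37°C or 30°C on LB agar, with or without 25 μg/mL kanamycin, plus 100 μg/mL carbenicillin, 50 μM IPTG and 0.2% rhamnose, and pooled colonies were amplicon-sequenced on an Illumina HiSeq 2500. DiMSum fitness is the error-weighted combination of wild-type-normalised replicate fold changes, kanamycin versus none.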

Row | Sequence | self-splicing fitness (ln) (30 °C) | self-splicing fitness (ln) (37 °C)
1 | UGCUAGCAAUAUUACGAUGG | -1.52 ± 0.067 | -0.47 ± 0.088
2 | UGCUAGCAAUAUUACGCAAC | -3.07 ± 0.28 | -1.98 ± 0.2
3 | UGCUAGCAAUAUUACGCACC | -1.91 ± 0.34 | -0.242 ± 0.37
4 | UGCUAGCAAUAUUACGCCAU | -3.15 ± 0.28 | -2.65 ± 0.35
5 | UGCUAGCAAUAUUACGCUUC | -1.65 ± 0.17 | -0.347 ± 0.28
6 | UGCUAGCAAUAUUACGGAAU | -3.98 ± 0.39 | -2.97 ± 0.29
7 | UGCUAGCAAUAUUACGGCGA | -0.369 ± 0.22 | -0.302 ± 0.23
8 | UGCUAGCAAUAUUACGGCGG | -1.15 ± 0.16 | -0.887 ± 0.23
9 | UGCUAGCAAUAUUACGGGAA | -1.83 ± 0.15 | -0.95 ± 0.16
10 | UGCUAGCAAUAUUACGGGGC | -3.59 ± 0.29 | -2.69 ± 0.25
11 | UGCUAGCAAUAUUACGGGUG | -1.79 ± 0.098 | -1.3 ± 0.11
12 | UGCUAGCAAUAUUACGGUUA | -0.0068 ± 0.062 | -0.481 ± 0.068
13 | UGCUAGCAAUAUUACGUCGA | -1.18 ± 0.13 | -1.14 ± 0.18
14 | UGCUAGCAAUAUUACGUGAA | -2.87 ± 0.14 | -0.167 ± 0.1
15 | UGCUAGCAAUAUUACGUUGA | -2.84 ± 0.18 | -2.43 ± 0.24
16 | UGCUAGCAAUAUUACGUUUA | -3.11 ± 0.19 | -1.27 ± 0.12
17 | UGGAAGCAAUAUUACGAAGC | -3.64 ± 0.35 | -2.35 ± 0.36
18 | UGGAAGCAAUAUUACGAGAG | -3.79 ± 0.47 | -3.3 ± 0.33
19 | UGGAAGCAAUAUUACGAGCA | -0.526 ± 0.082 | 0.193 ± 0.1
20 | UGGAAGCAAUAUUACGAGUC | -2.78 ± 0.29 | -3.37 ± 0.33
21 | UGGAAGCAAUAUUACGAUUA | -1.1 ± 0.11 | 0.012 ± 0.12
22 | UGGAAGCAAUAUUACGCAAG |  | -1.83 ± 0.37
23 | UGGAAGCAAUAUUACGCAAU | -1.81 ± 0.24 | -0.664 ± 0.24
24 | UGGAAGCAAUAUUACGCAGA | -2.85 ± 0.21 | -0.966 ± 0.14
25 | UGGAAGCAAUAUUACGGACU | -0.345 ± 0.11 | 0.284 ± 0.12

Row | Sequence | self-splicing fitness (ln) (30 °C) | self-splicing fitness (ln) (37 °C)
26 | UGGAAGCAAUAUUACGGCCA | -0.874 ± 0.21 | -0.244 ± 0.2
27 | UGGAAGCAAUAUUACGGGAC | -2.63 ± 0.21 | -3.26 ± 0.32
28 | UGGAAGCAAUAUUACGGGCC |  | -1.27 ± 0.34
29 | UGGAAGCAAUAUUACGUAUC | -3.27 ± 0.27 | -2.28 ± 0.27
30 | UGGAAGCAAUAUUACGUAUU | -3.06 ± 0.23 | -3.09 ± 0.33
31 | UGGAAGCAAUAUUACGUCGC | -3.16 ± 0.45 | -2.39 ± 0.35
32 | UGGAAGCAAUAUUACGUGAU | -2.32 ± 0.2 | -1.67 ± 0.22
33 | UGGAAGCAAUAUUACGUGCC | -2.57 ± 0.27 | -0.372 ± 0.34
34 | UGGAAGCAAUAUUACGUUGU | -3.64 ± 0.37 | -2.88 ± 0.3
35 | UGGCAGCAAUAUUACGAACC | -1.66 ± 0.15 | -0.775 ± 0.2
36 | UGGCAGCAAUAUUACGAAUC | -2.3 ± 0.25 | 
37 | UGGCAGCAAUAUUACGACGC |  | -1.72 ± 0.24
38 | UGGCAGCAAUAUUACGCACA | -1.24 ± 0.11 | -0.127 ± 0.12
39 | UGGCAGCAAUAUUACGCACC | -2.36 ± 0.22 | -1.37 ± 0.25
40 | UGGCAGCAAUAUUACGCAUC | -1.93 ± 0.18 | -1.65 ± 0.16
41 | UGGCAGCAAUAUUACGCUAG | -1.41 ± 0.077 | -0.514 ± 0.11
42 | UGGCAGCAAUAUUACGCUCU | -2.8 ± 0.2 | -1.37 ± 0.16
43 | UGGCAGCAAUAUUACGGCUA | -0.191 ± 0.15 | -0.128 ± 0.19
44 | UGGCAGCAAUAUUACGGGAC | -2.88 ± 0.45 | -2.37 ± 0.49
45 | UGGCAGCAAUAUUACGGGUA | -0.841 ± 0.11 | 0.0742 ± 0.11
46 | UGGCAGCAAUAUUACGGGUU | -3.09 ± 0.14 | -2.45 ± 0.14
47 | UGGCAGCAAUAUUACGUACC | -0.627 ± 0.17 | -0.885 ± 0.23
48 | UGGCAGCAAUAUUACGUAGA | -0.926 ± 0.084 | -0.264 ± 0.094
49 | UGGCAGCAAUAUUACGUAGG | -0.869 ± 0.092 | -0.975 ± 0.14
50 | UGGCAGCAAUAUUACGUGGG | -2.8 ± 0.1 | -2.02 ± 0.11

Row | Sequence | self-splicing fitness (ln) (30 °C) | self-splicing fitness (ln) (37 °C)
51 | UGGGAGCAAUAUUACGACAA | -2.75 ± 0.34 | -0.982 ± 0.3
52 | UGGGAGCAAUAUUACGAGUC |  | -1.83 ± 0.47
53 | UGGGAGCAAUAUUACGAUUA | -2.17 ± 0.22 | -2.1 ± 0.29
54 | UGGGAGCAAUAUUACGAUUC | -4.38 ± 0.27 | -2.41 ± 0.21
55 | UGGGAGCAAUAUUACGCAUA | -1.98 ± 0.27 | -1.22 ± 0.22
56 | UGGGAGCAAUAUUACGCAUG | -3.28 ± 0.35 | -0.201 ± 0.22
57 | UGGGAGCAAUAUUACGGCGG | -2.86 ± 0.4 | -1.23 ± 0.46
58 | UGGGAGCAAUAUUACGGGCC | -2.63 ± 0.32 | -1.92 ± 0.35
59 | UGGGAGCAAUAUUACGGGGU | -1.76 ± 0.33 | -1.7 ± 0.35
60 | UGGGAGCAAUAUUACGGUGU | -2.52 ± 0.45 | -1.9 ± 0.37
61 | UGGGAGCAAUAUUACGUAGC | -3.22 ± 0.27 | 
62 | UGGGAGCAAUAUUACGUAUC | -3.59 ± 0.39 | -2.56 ± 0.33
63 | UGGGAGCAAUAUUACGUCCC | -3.01 ± 0.4 | -1.84 ± 0.41
64 | UGGGAGCAAUAUUACGUCGG | -0.491 ± 0.24 | 
65 | UGGGAGCAAUAUUACGUUAG | -3.58 ± 0.32 | -2.13 ± 0.23
66 | UGGGAGCAAUAUUACGUUCU | -2.95 ± 0.29 | -2.35 ± 0.32
67 | UGGUAGCAAUAUUACGAAAG | -3.06 ± 0.26 | 
68 | UGGUAGCAAUAUUACGAACU | -0.279 ± 0.12 | 0.0176 ± 0.18
69 | UGGUAGCAAUAUUACGACCA | -1.07 ± 0.18 | -1.02 ± 0.2
70 | UGGUAGCAAUAUUACGACCC | 0.0232 ± 0.27 | -0.576 ± 0.36
71 | UGGUAGCAAUAUUACGACUA | -0.227 ± 0.16 | -0.296 ± 0.2
72 | UGGUAGCAAUAUUACGAGUA | -0.457 ± 0.19 | -0.963 ± 0.2
73 | UGGUAGCAAUAUUACGAUGG | -2.44 ± 0.15 | -1.1 ± 0.17
74 | UGGUAGCAAUAUUACGAUUU | -1.14 ± 0.14 | -0.866 ± 0.14
75 | UGGUAGCAAUAUUACGCCAU |  | -1.09 ± 0.48

Row | Sequence | self-splicing fitness (ln) (30 °C) | self-splicing fitness (ln) (37 °C)
76 | UGGUAGCAAUAUUACGCCUA | 0.144 ± 0.11 | 0.464 ± 0.12
77 | UGGUAGCAAUAUUACGCGCU | -2.58 ± 0.18 | -1.31 ± 0.18
78 | UGGUAGCAAUAUUACGCUCU | -2.22 ± 0.2 | -1.31 ± 0.24
79 | UGGUAGCAAUAUUACGCUUA | -0.955 ± 0.18 | -0.553 ± 0.22
80 | UGGUAGCAAUAUUACGGUAG | -2.53 ± 0.2 | -0.912 ± 0.14
81 | UGGUAGCAAUAUUACGGUUA | -0.381 ± 0.12 | 0.439 ± 0.15
82 | UGGUAGCAAUAUUACGUCGC | -3.78 ± 0.21 | -2.88 ± 0.19
83 | UGGUAGCAAUAUUACGUCGU | -2.83 ± 0.15 | -1.59 ± 0.16
84 | UGGUAGCAAUAUUACGUGAA | -1.96 ± 0.14 | -1.57 ± 0.15
85 | UGGUAGCAAUAUUACGUGCU | -2 ± 0.13 | -1.18 ± 0.16
86 | UGGUAGCAAUAUUACGUUAA | -3.27 ± 0.21 | -1.78 ± 0.17
87 | UGUAAGCAAUAUUACGAAUU | -2.57 ± 0.25 | -1.64 ± 0.19
88 | UGUAAGCAAUAUUACGACCA | 0.386 ± 0.12 | 0.0758 ± 0.19
89 | UGUAAGCAAUAUUACGACUA | 0.00851 ± 0.12 | 0.0364 ± 0.14
90 | UGUAAGCAAUAUUACGCACC | -0.744 ± 0.36 | 0.286 ± 0.37
91 | UGUAAGCAAUAUUACGCCCA | -0.177 ± 0.18 | 0.0098 ± 0.2
92 | UGUAAGCAAUAUUACGCUCU | 0.793 ± 0.47 | -0.974 ± 0.45
93 | UGUAAGCAAUAUUACGCUGU | -3.43 ± 0.18 | -2.07 ± 0.18
94 | UGUAAGCAAUAUUACGGACA | -0.174 ± 0.16 | 0.153 ± 0.23
95 | UGUAAGCAAUAUUACGGGCC | -2.87 ± 0.41 | -1.23 ± 0.41
96 | UGUAAGCAAUAUUACGGGGG | -3.46 ± 0.22 | -1.88 ± 0.21
97 | UGUAAGCAAUAUUACGGUCU | -0.465 ± 0.089 | -0.33 ± 0.11
98 | UGUAAGCAAUAUUACGGUUC |  | -2.92 ± 0.31
